According to patent US10017787B2, “Production of alkenes from 3-hydroxycarboxylic acids via 3-hydroxycarboxyl-nucleotidylic acids” (Global Bioenergies, priority 2013, dated 2018):

B1: AMP-dependent synthetase/ligase from Marinobacter aquaeolei (Marinobacter nauticus VT8) (protein)
chain: MTSIFDQGLEPRDANYAVQSPIDFIERTASVYPDYPAIIHGAIRRTWAETYDRCLRLASALKGRGIGRGDTVAVMLPNIPAMVECHFGIPMIGAVLNTLNVRLDAEAIAFMLEHGEAKVVIADREFGQVIKDAVRHLEHKPLVIDVDDPEYGEGVQVSDLDYEAFLQEGDPQFQWSFPDNEWDAISLNYTSGTTGNPKGVVYHHRGAYINALGNQTVWSMDMHPVYLWTLPMFHCNGWCFPWTITAMAGTHVCLRRVDPEKILQLIHDHQVTHMCGAPIVLNALLNASPEAKAGIDHEVKSMTAGAAPPAQVIGSIEEMGIKVTHVYGLTEVYGPVTVCAWKSEWDELPLHDRAKIKARQGVRYHTLGGTMVADPNTMQPVPKDGKTIGEIFLRGNTVMKGYLKNPTATEEAFRGGWFHTGDLAVWHEDGYMEIKDRLKDIIISGGENISTIEVEDTLYRHPAVLEAAVVARPDEKWGETPCAFITLKPEAGDVSEDDIINFCREHLARFKVPKTVVFTELPKTSTGKIQKFVLRDQAKDLN
B2: acyl-CoA synthase from M. algicola: acyl-CoA synthetase from Marinobacter algicola, SEQ ID NO: 2, Uniprot A6EZ54 (protein)
chain: MNSIFDKGLEPTDANNATLTPLDFLARTASVYPEYPAVIHGATRRNWQQTYERCRRLASALADRGVGKGDTVAAMLPNIPPMLECHFGIPMLGAVLNALNTRLDAKAIAFMLEHGEAKVLIADREFGDVINEAVGMLDNPPQVIDVNDPEFSGAGTQVSDLDYDAFVASGDPAFDWQMPADEWDAISLCYTSGTTGNPKGVVYHHRGAYENAMGNQAVWSMGMHPVYLWTLPMFHCNGWCFPWTITAFAGTHVCLRKVEPEKILQLISEHKVSHMCGAPIVLNTLLGASEAAKSSFSHTVQAMTAGAAPPAKVIEAIENMGFRVTHVYGLTEVYGPVTVCAWKSEWDDLPVEDRARIKARQGVRYHTLAGMMVGDPETMEAVPKDGNTIGEIFLRGNTVMKGYLKNPKATEEAFRGGWFHTGDLAVWHADGYAEIKDRLKDIIISGGENISTIEVEDVLYRHPDILEAAVVARPDEKWGETPCAFVTLKPEAGEVSEDDIIAFCRERMAKFKVPKTIVFSELPKTSTGKIQKFVLRDDAKKL
modifications: Marinobacter algicola DG893
B3: AMP-dependent synthetase/ligase from Burkholderia sp.: AMP-dependent synthetase and ligase of Burkholderia sp., SEQ ID NO: 4, Uniprot R4WRJ4 (protein)
chain: MTHSEEIMTTPGIYDEGLPKTAANFAVMTPLTFIERAASVYPNRPAVVHGDVRRTWSETYARTRRLASALAARGIGVGDTVAVMLPNTPEMVEAHFGVPMTGAVLNALNTRLDAATLAFMLTHGEAKAVLVDREFSDVMRRALESVPQKLLVIDVDDSQYAGAGERIGEIEYEALLASGDPAYEWTPPSDEWNAICLNYTSGTTGNPKGVVYHHRGAYTNAVSNILEWDMPAHAVYLWTLPMFHCNGWCFPWTIAARAGVNVCLRRIDAKTVFDLIRNEGVTHYCGAPIVQNMLVNAPDELKAGIAQKVNAMVAGAAPPAAMIEGMERMGFQLTHVYGLTEVYGPATVCAHQAEWSELDIGERARLNARQGVRYHLQDAVTVRDPDTMQLVPPDGETIGEIMFRGNIAMKGYLKNAAATEEAFRGGWFHTGDLAVAYPDGYVRIKDRSKDIIISGGENISSIEVEDVLYRHPAVLAVAVVAKPDARWGETPCAFVELKTGVHVSGEELIAHCKQHLAGFKVPRAIEFCELPKTSTGKIQKFELRKRAGSVTAIDV
modifications: Burkholderia sp. RPE64

Tests used:
(R,S)-3-hydroxybutyrate [1] = assay: Propylene production from 3-hydroxybutyrate, M. aquaeolei enzyme and OleC proteins, GC-FID; assay type: biochemical; settings: 50 mM (R,S)-3-hydroxybutyrate, 10 mM ATP, 2 mg/ml each enzyme, 18 hours at 37° C.
Experimental: The studied enzymes were produced and purified according to the procedure described in Example 1. The studied reaction was carried out under the following conditions
2 mg/ml purified AMP-dependent synthetase/ligase from M. aquaeolei
2 mg/ml purified OleC protein from Shewanella amazonensis or from Chloroflexus aurantiacus
Reaction volume was 0.3 ml.
For the no enzymes control, buffer was used in place of enzymes.
Controls reactions without ATP were realized in parallel.
The reaction mixtures were incubated in 2 ml sealed vials (Interchim) for 18 hours at 37° C. with shaking. Propylene production was analyzed by Gas Chromatography (GC) using Bruker 450-GC gas chromatograph equipped with Flame Ionization Detector (FID). Nitrogen was used as carrier gas with a flow rate of 6 ml/min. Volatile compounds were chromatographically separated on GS-Alumina column (30 m×0.53 mm ID) (Agilent) using an isothermal mode at 130° C. The enzymatic reaction product were identified by comparison with standard of propylene (Sigma-Aldrich), the retention time of propylene in these conditions was 1.57 min.

[2] = substrate: CC(O)CC(=O)O; assay: purified protein, by the assay type; settings: other: 0-10 mM 3-hydroxycarboxylate, 2 mM ATP, 0.1 mg/ml enzyme, pH 7.5
[3] = substrate: CC(C)(O)CC(=O)O; assay: purified protein, by the assay type; settings: other: 0-10 mM 3-hydroxycarboxylate, 2 mM ATP, 0.1 mg/ml enzyme, pH 7.5
3-hydroxyisovalerate = assay: Isobutene production from 3-hydroxyisovalerate, M. aquaeolei enzyme and OleC proteins, GC-FID; assay type: biochemical; settings: 50 mM 3-hydroxyisovalerate, 10 mM ATP, 0.6 mg each enzyme in 0.3 ml, 18 hours at 37° C.
Experimental: The studied reaction was carried out under the following conditions
Reaction volume was 0.3 ml
0.6 mg of AMP-dependent synthetase/ligase from M. aquaeolei and 0.6 mg of OleC protein were added to 0.3 ml of reaction mixture. A reaction mixture containing only 0.6 mg of AMP-dependent synthetase/ligase from M. aquaeolei was used as reference. The assays were incubated in 2 ml sealed vials (Interchim) for 18 hours at 37° C. with shaking. Isobutene production was analyzed by Gas Chromatography (GC) using Bruker 450-GC gas chromatograph equipped with Flame Ionization Detector (FID). Nitrogen was used as carrier gas with a flow rate of 6 ml/min. Volatile compounds were chromatographically separated on GS-Alumina column (30 m×0.53 mm ID) (Agilent) using an isothermal mode at 130° C. The enzymatic reaction product were identified by comparison with standard of isobutene (Sigma-Aldrich), the retention time of isobutene in these conditions was 2.40 min.

[4] = substrate: CC[C@@H](O)CC(=O)O; assay: Kinetic parameters of adenylation of 3-hydroxycarboxylates, continuous spectrophotometric diphosphate release assay; assay type: biochemical, Marinobacter aquaeolei; settings: other: 0-10 mM 3-hydroxycarboxylate, 2 mM ATP, 0.1 mg/ml enzyme, pH 7.5
Experimental: (§1) The genes coding for the adenylate-forming enzymes were synthesized and the corresponding enzymes were further produced according to the procedure described in Example 1. 3-hydroxypropionic acid (TCI) stock solution was prepared in water with the pH adjusted to 7.5 with 1 M NaOH. The release of diphosphate which is associated with 3-hydroxypropionyl-adenylate formation from 3-hydroxypropionate was quantified using the EnzCheck® Pyrophosphatase Assay Kit (E6645, Life Technologies).
(§2) In this assay, diphosphate was hydrolyzed to inorganic phosphate by inorganic pyrophosphatase and phosphate production coupled to phosphorolysis of the 2-amino-6-mercapto-7-methylpurine ribonucleoside (MESG), catalyzed by the enzyme purine nucleoside phosphorylase (PNP). The chromophoric product, 2-amino-6-mercapto-7-methylpurine, was monitored by absorbance at 360 nm (FIG. 9).
(§3) Kinetic parameters were determined by using the spectrophotometric assay described in Example 2. Reaction mixture for the assay of adenylation activity contained:
(§4) 0-10 mM 3-hydroxycarboxylate
(§5) 0.1 mg/ml of purified AMP-dependent synthetase/ligase from M. aquaeolei
(§6) 2-amino-6-mercapto-7-methylpurine ribonucleoside (MESG), purine nucleoside phosphorylase (PNP) and inorganic pyrophosphatase were added to the reaction mix according to the procedure described in the EnzCheck® Pyrophosphatase Assay Kit.

[5] = substrate: O=C(O)CCO; assay: as above; assay type: biochemical, Marinobacter aquaeolei; settings: other: 0-10 mM 3-hydroxycarboxylate, 2 mM ATP, 0.1 mg/ml enzyme, pH 7.5
Experimental: as §1, §2, §3, §4, §5, §6

[6] = substrate: C=CC(O)CC(=O)O; assay: as above; assay type: biochemical, Marinobacter aquaeolei; settings: other: 0-10 mM 3-hydroxycarboxylate, 2 mM ATP, 0.1 mg/ml enzyme, pH 7.5
Experimental: as §1, §2, §3, §4, §5, §6

(R,S)-3-hydroxybutyrate [7] = assay: Adenylation of 3-hydroxybutyrate with ATP or ADP as co-substrates, spectrophotometric assay; assay type: biochemical; settings: 5 mM (R,S)-3-hydroxybutyrate, 0-3.2 mM ATP or ADP, 0.1 mg/ml enzyme (FIGS. 15 and 16)
Experimental: Spectrophotometric assay was performed according to the procedure described in Example 2. The specificity of acyl-CoA synthase from M. algicola and AMP-dependent synthetase/ligase from Burkholderia sp. with respect to co-substrates was analyzed. Standard reaction contained:
0.1 mg/ml of purified enzyme
2-amino-6-mercapto-7-methylpurine ribonucleoside (MESG), purine nucleoside phosphorylase (PNP) and inorganic pyrophosphatase were added to the reaction mix according to the procedure described in the EnzCheck® Pyrophosphatase Assay Kit. A reaction mixture without inorganic pyrophosphatase was used for assays with ADP as co-substrate. Control assays were performed in which either no enzyme was added, or no 3-hydroxybutyrate was added. Each assay was started with the addition of co-substrate (ATP or ADP). Each sample was continuously monitored for the increase of 2-amino-6-mercapto-7-methylpurine at 360 nm on a SpectraMax Plus 384 UV/Vis Microplate Reader (Molecular Devices).

Propylene peak area ((R,S)-3-hydroxybutyrate [1]) | Isobutene peak area (3-hydroxyisovalerate) | Molecule | Km [2] | kcat [2] | Km [3] | kcat [3] | Km [4] | kcat [4] | Km [5] | kcat [5] | Km [6] | kcat [6] | formation of 3-hydroxybutyryl-adenylate with ATP or ADP as co-substrate ((R,S)-3-hydroxybutyrate [7])
0 arbitrary units | 414 arbitrary units | B1 | 2 mM | 0.03 s⁻¹ | 10 mM | 0.007 s⁻¹ | 4 mM | 0.012 s⁻¹ | 5 mM | 0.04 s⁻¹ | 3 mM | 0.023 s⁻¹ | –
– | – | B2 | – | – | – | – | – | – | – | – | – | – | able to catalyze the formation of 3-hydroxybutyryl-adenylate by using ATP or ADP as co-substrate
– | – | B3 | – | – | – | – | – | – | – | – | – | – | able to catalyze the formation of 3-hydroxybutyryl-adenylate by using ATP or ADP as co-substrate
